In paper PMC8015186:

Experiments:
[1] = molecular target: TraWF in the BACTH-TM vectors (E. coli (F-plasmid)) (UniProt P18472); assay: two-hybrid
[2] = molecular target: TraBN with T18 or T25 at its N-terminus (BACTH) (Neisseria gonorrhoeae MS11) (UniProt Q5EPB9); assay: two-hybrid

Substance: TraVF in the BACTH-TM vectors (from UniProt P41069 19-171) (natural protein)
- β-galactosidase signal over background (times above the background level) [1]: 8

Substance: TrbCN in the BACTH-TM vectors (natural protein)
- β-galactosidase signal over background (times above the background level) [2]: 4
